Assay results published in the supplement of paper PMC10065799, “High-throughput profiling of sequence recognition by tyrosine kinases and SH2 domains using bacterial peptide display” (eLife, 2023).

Tests used:
AncSZ = assay: phosphorylation enrichment, bacterial display (enrichment ratio); higher = better substrate or ligand; peptides without Tyr show the background
EPHB1 = EPHB1 (UniProt P54762); assay: as above
EPHB2 = EPHB2 (UniProt P29323); assay: as above
FGFR1 = FGFR1 (UniProt P11362); assay: as above
FGFR3 = FGFR3 (UniProt P22607); assay: as above
Fer (mouse) = assay: as above
Fes = Fes (UniProt P07332); assay: as above
Fyn = Fyn (UniProt P06241); assay: as above
Hck = Hck (UniProt P08631); assay: as above
Jak2 = Jak2 (UniProt O60674); assay: as above
MERTK = MERTK (UniProt Q12866); assay: as above
c-Abl (mouse) = assay: as above
c-Src = assay: as above
Grb2 SH2 = Grb2 SH2 (UniProt P62993); assay: SH2 binding enrichment of the phosphorylated peptide, bacterial display (enrichment ratio); higher = better substrate or ligand; peptides without Tyr show the background
SHP2-C SH2 = assay: as above
c-Src SH2 = assay: as above
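Wherever SH2 binding enrichment of the phosphorylated peptide, bacterial display is given: peptide library displayed on the E. coli surface as eCPX fusions, selected cells deep-sequenced, score is each peptide's frequency after selection divided by its frequency in the input.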
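Wherever phosphorylation enrichment, bacterial display is given: 11-residue human phosphosite peptides and single-mutation variants displayed on the E. coli surface, counted by deep sequencing, each peptide's frequency after selection divided by its frequency in the unselected input library; frequency after pTyr selection over input frequency; kinase dosed for 20-30% of maximal phosphorylation in three min.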

Chain of EPHB1 (P54762 whole entry, looked up): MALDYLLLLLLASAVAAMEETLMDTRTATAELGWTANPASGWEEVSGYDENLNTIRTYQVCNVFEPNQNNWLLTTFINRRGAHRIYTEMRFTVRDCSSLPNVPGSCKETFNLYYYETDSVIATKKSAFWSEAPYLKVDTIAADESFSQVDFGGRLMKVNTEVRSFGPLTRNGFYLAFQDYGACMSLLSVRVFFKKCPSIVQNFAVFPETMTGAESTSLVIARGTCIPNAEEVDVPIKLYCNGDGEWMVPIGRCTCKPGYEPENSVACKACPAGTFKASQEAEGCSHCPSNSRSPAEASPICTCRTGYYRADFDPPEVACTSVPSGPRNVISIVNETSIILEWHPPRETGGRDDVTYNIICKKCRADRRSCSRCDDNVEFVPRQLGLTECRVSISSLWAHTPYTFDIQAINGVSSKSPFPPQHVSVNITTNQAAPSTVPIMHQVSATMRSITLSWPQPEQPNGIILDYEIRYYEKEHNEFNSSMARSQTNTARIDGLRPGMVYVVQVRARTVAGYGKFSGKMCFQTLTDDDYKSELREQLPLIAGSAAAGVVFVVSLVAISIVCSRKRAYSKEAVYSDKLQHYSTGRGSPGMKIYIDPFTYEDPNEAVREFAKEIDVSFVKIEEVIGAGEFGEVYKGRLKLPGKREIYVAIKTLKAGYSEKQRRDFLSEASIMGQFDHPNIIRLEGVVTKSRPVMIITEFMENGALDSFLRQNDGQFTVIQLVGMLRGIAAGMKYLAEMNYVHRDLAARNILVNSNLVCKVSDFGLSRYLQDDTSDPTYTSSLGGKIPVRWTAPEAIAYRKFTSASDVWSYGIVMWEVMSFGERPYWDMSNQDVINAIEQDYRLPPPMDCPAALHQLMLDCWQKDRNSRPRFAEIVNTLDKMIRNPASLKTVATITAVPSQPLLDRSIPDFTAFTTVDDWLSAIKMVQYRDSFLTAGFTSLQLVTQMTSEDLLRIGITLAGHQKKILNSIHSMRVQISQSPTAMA
Chain of Hck (P08631 whole entry, looked up): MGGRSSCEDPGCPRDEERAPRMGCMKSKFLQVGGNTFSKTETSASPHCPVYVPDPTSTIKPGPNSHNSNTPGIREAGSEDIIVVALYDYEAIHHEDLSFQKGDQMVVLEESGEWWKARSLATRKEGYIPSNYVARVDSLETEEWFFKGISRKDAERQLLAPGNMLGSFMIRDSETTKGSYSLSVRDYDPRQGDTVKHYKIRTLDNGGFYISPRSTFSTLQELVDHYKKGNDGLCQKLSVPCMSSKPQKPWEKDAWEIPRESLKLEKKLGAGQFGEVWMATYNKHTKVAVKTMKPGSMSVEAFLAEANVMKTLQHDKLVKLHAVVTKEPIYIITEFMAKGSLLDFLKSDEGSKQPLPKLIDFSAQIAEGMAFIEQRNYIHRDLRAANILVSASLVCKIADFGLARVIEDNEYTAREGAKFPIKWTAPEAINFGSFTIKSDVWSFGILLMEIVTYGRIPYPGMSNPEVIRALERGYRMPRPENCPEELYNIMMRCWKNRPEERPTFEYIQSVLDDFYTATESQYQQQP
Chain of MERTK (Q12866 whole entry, looked up): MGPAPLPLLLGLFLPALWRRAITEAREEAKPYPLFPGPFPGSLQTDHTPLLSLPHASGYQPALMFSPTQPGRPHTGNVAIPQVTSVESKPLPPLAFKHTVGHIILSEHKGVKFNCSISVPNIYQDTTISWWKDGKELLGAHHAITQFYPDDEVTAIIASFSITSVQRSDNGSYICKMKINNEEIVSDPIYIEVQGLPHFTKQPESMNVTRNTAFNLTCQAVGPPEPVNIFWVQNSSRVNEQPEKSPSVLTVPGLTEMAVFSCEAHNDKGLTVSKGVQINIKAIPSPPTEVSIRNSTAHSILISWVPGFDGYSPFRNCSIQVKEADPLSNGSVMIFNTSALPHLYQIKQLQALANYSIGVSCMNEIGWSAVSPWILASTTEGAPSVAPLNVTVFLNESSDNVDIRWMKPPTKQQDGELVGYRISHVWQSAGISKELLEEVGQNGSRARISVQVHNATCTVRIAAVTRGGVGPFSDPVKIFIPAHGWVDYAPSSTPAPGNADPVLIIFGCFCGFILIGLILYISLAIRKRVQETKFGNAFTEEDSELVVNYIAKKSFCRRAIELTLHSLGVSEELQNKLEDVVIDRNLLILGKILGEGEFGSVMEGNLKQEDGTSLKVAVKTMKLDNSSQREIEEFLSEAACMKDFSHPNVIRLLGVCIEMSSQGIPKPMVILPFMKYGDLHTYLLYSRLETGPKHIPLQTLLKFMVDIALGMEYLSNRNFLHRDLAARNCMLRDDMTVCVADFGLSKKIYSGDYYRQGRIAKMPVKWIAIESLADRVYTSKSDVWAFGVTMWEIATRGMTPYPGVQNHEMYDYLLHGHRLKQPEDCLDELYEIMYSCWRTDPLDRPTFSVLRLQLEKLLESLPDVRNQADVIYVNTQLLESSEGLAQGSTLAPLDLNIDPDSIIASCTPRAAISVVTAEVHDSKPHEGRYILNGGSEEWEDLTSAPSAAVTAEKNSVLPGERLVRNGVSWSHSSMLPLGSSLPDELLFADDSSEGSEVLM
Chain of Fes (P07332 whole entry, looked up): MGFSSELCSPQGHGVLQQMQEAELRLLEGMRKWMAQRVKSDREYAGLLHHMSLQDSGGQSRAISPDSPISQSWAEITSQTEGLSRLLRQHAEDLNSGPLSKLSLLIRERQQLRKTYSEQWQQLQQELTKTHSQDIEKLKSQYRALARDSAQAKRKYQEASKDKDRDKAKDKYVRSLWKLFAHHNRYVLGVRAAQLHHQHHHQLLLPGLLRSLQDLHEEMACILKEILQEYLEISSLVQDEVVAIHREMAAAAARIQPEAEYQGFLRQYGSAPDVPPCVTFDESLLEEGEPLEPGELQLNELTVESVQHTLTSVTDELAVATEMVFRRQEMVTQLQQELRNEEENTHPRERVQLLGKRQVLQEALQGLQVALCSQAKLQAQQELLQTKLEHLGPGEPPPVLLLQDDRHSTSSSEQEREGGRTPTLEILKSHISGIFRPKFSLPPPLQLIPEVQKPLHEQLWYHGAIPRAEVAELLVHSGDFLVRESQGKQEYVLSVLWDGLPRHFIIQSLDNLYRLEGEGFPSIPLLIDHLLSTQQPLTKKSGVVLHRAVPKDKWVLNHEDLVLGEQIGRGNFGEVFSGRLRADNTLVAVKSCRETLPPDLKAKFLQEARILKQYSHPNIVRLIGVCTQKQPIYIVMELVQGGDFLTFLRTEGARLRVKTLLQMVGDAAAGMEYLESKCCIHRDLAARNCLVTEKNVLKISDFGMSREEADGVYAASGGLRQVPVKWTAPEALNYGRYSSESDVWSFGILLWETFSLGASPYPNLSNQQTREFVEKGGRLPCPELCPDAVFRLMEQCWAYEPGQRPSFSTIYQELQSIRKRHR
Chain of FGFR1 (P11362 whole entry, looked up): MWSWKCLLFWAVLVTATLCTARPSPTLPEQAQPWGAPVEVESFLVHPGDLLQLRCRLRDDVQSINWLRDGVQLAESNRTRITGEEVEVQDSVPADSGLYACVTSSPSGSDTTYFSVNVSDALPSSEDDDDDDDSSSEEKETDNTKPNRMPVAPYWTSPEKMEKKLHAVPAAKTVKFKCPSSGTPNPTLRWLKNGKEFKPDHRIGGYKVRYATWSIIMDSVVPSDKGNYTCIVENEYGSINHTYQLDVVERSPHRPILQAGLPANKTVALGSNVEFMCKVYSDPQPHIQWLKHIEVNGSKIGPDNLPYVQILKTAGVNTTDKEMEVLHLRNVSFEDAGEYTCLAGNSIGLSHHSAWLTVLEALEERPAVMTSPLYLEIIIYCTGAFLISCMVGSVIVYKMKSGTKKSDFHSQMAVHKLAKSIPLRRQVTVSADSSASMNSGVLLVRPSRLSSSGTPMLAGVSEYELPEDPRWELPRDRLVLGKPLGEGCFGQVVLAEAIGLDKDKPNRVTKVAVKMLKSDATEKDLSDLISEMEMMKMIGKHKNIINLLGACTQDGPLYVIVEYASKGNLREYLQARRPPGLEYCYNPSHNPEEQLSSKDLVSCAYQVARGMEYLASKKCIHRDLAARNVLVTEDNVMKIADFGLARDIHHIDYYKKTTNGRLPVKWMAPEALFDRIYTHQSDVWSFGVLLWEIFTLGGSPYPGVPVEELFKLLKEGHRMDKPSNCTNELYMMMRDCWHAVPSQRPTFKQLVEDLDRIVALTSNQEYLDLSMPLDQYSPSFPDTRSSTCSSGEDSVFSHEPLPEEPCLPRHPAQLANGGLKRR
Chain of Fyn (P06241 whole entry, looked up): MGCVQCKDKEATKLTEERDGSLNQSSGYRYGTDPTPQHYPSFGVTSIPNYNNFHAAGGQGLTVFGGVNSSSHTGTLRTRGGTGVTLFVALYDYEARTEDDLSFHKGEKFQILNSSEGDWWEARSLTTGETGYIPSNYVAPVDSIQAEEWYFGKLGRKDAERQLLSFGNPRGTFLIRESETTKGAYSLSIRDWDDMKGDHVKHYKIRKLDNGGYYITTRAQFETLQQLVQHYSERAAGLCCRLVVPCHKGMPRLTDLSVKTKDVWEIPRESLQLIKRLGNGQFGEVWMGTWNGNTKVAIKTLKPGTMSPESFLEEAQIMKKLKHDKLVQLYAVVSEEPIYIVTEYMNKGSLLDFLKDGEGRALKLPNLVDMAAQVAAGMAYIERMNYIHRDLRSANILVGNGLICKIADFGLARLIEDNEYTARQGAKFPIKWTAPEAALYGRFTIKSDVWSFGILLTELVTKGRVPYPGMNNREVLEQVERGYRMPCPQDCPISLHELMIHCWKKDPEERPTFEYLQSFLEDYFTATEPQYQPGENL

Sequence	SH2 binding enrichment (Grb2 SH2)	SH2 binding enrichment (SHP2-C SH2)	SH2 binding enrichment (c-Src SH2)	phosphorylation enrichment (AncSZ)	phosphorylation enrichment (EPHB1)	phosphorylation enrichment (EPHB2)	phosphorylation enrichment (FGFR1)	phosphorylation enrichment (FGFR3)	phosphorylation enrichment (Fer (mouse))	phosphorylation enrichment (Fes)	phosphorylation enrichment (Fyn)	phosphorylation enrichment (Hck)	phosphorylation enrichment (Jak2)	phosphorylation enrichment (MERTK)	phosphorylation enrichment (c-Abl (mouse))	phosphorylation enrichment (c-Src)
ISSLPYMKMIF [SLC4A11_Y853_M848I]	1.19	1.52	1.61	1.05	0.536	0.547	0.696	0.665	1.11	1.07	0.457	0.677	1.35	0.668	0.872	0.79
ISTAGYSIPEL [EDAR_Y406]	0.796	0.893	7.33	0.807	0.525	0.464	0.416	0.697	0.436	0.92	0.397	0.534	0.745	0.713	1.46	0.457
KASIMYPSSNC [CXCL11_Y52_N55S]	0.943	0.7	0.565	0.629	0.411	0.48	0.455	0.467	0.452	0.653	0.434	0.429	0.522	0.395	0.497	0.397
KDFNKYVAFIE [KDM4B_Y31_YF]	0.864	1.02	1.42	0.799	0.43	0.429	0.399	0.581	0.434	0.836	0.513	0.505	0.744	0.424	0.629	0.456
KDHPDYKYQAR [SOX10_Y171_P175A]	0.895	0.738	0.476	0.606	0.427	0.416	0.416	0.563	0.448	0.696	0.434	0.496	0.58	0.39	0.609	0.415
KDQPDYKFQPR [SOX9_Y172_H169Q_YF]	1.2	0.829	0.675	0.666	0.348	0.402	0.422	0.529	0.381	0.678	0.382	0.386	0.491	0.46	0.457	0.434
KFSNQYKATIG [RAB7A_Y37]	0.948	1.01	0.656	0.528	0.47	0.311	0.351	0.411	0.463	0.613	0.41	0.44	0.538	0.4	0.471	0.485

The next lines start with results.

SH2 binding enrichment (Grb2 SH2)	SH2 binding enrichment (SHP2-C SH2)	SH2 binding enrichment (c-Src SH2)	Sequence	phosphorylation enrichment (AncSZ)	phosphorylation enrichment (EPHB1)	phosphorylation enrichment (EPHB2)	phosphorylation enrichment (FGFR1)	phosphorylation enrichment (FGFR3)	phosphorylation enrichment (Fer (mouse))	phosphorylation enrichment (Fes)	phosphorylation enrichment (Fyn)	phosphorylation enrichment (Hck)	phosphorylation enrichment (Jak2)	phosphorylation enrichment (MERTK)	phosphorylation enrichment (c-Abl (mouse))	phosphorylation enrichment (c-Src)
1.03	1.11	0.655	ISPPVYLTNEW [NRK_Y885]	1.13	0.694	0.724	0.704	0.718	0.698	1.09	0.825	0.732	1.1	0.542	0.92	0.766
0.755	0.484	0.45	ISRASYFRKGG [ALK_Y1282_Y1278S_YF]	0.664	0.4	0.37	0.341	0.388	0.456	0.724	0.419	0.435	0.59	0.469	0.597	0.506
1.05	0.884	0.627	ITLKGYNLSNS [GNPTAB_Y728_K732N]	0.66	0.385	0.487	0.525	0.618	0.433	0.639	0.488	0.477	0.547	0.381	0.466	0.448
0.914	0.58	0.457	KAALSYVSEIG [BPIFB2_Y36]	0.555	0.352	0.385	0.456	0.558	0.387	0.636	0.364	0.476	0.668	0.326	0.453	0.372
1.37	1.45	1.21	KASGKYFAMKI [AKT3_Y173_YF]	0.495	0.372	0.338	0.347	0.421	0.34	0.626	0.344	0.323	0.508	0.367	0.447	0.351
0.928	0.791	0.609	KDPPDYKFQPR [SOX9_Y172_H169P_YF]	0.811	0.343	0.44	0.427	0.527	0.449	0.789	0.439	0.414	0.719	0.461	0.626	0.43
0.768	0.541	0.486	KEAQVYQAFRL [SUCLG2_Y343_K347R]	0.576	1.23	0.62	0.743	0.581	14	0.677	14.2	14	0.661	4.78	19.6	11.3
0.861	0.762	0.653	KFANSYRMEPL [TCTE3_Y87]	0.574	0.43	0.409	0.443	0.491	0.465	0.623	0.47	0.414	0.774	0.417	0.534	0.528
1.07	7.45	1.73	KFDLMYAKLAF [TUBA1A_Y399_R402L]	0.818	0.726	0.619	0.49	0.676	0.632	1.13	1.26	4.61	0.811	3.23	0.716	3.04
